Assay: soluble on expression in E. coli; label from the status in PepcDB or PDB records

Row | Sequence | soluble on expression in E. coli
1 | MGKIQARIPDEVQEVASAVIKSTGLTVSDAVRMFMTRIARDRALPLDLFQPNLETLQAIEDAEMGRVERTSLDGLRAMIRDDKAEVCKSAK | not soluble
2 | MIQDTRPLIRVVAGILLDSDGNYLLSSRPEGKPYAGYWEFAGGKVEAGETDFQALQREFEEELGIRILAATPWLTKIHSYEHARVCLKFLWVNPDQWTGKPQSREGQEWSWQKAGDFTVAPMLPANGALLRSLSVPRRLYGSLKTGLHGENSMGAYRVLPLGSAEGSGANVLMEAAQWQDRPEHADSVWMVVQTREQWRRAQEKGADAVVWRVCDDVQAQEAAEALRQGVSVPLVLAANGQTVARYGKLWLGLGAHVVVRDETIGKNHE | not soluble
3 | MKQDMWELRKIQSQGITDNAQYPAGTYIVFTAAAPYIPLFEQHGKDDIALSLVRHEEAWWIVNHSDELCCAVNEQVMEPHHRMRLNDGDTIEWGLSSWCLARTNDESRPDVSFPQLVQSSESVAEYLDLDWFKQQQLNPQNPFDIIPVRETASSYTGHEADSTLHQLYQEYQQALRPSGQEKPLRAKPFPRNEDAVTQDLTSLYDKKGDTDTLQDMVAGAPGIDAILDTLDTTGEGEMHWLAMESMPDILQLLSPELGGKTAHSEILPDLTRREHRIIGIDSHYRITPTQKNGNTAHEKN | not soluble
4 | MKGRLLDAVPLSSLTGVGAALSNKLAKINLHTVQDLLLHLPLRYEDRTHLYPIGELLPGVYATVEGEVLNCNISFGGRRMMTCQISDGSGILTMRFFNFSAAMKNSLAAGRRVLAYGEAKRGKYGAEMIHPEYRVQGDLSTPELQETLTPVYPTTEGVKQATLRKLTDQALDLLDTCAIEELLPPELSQGMMTLPEALRTLHRPPPTLQLSDLETGQHPAQRRLILEELLAHNLSMLALRAGAQRFHAQPLSANDTLKNKLLAALPFKPTGAQARVVAEIERDMALDVPMMRLVQGDVGSGKTLVAALAALRAIAHGKQVALMAPTELLAEQHANNFRNWFAPLGIEVGWLAGKQKGKARLAQQEAIASGQVQMIVGTHAIFQEQVQFNGLALVIIDEQHRFGVHQRLALWEKGQQQGFHPHQLIMTATPIPRTLAMTAYADLDTSVIDELPPGRTPVTTVAIPDTRRTDIIDRVHHACITEGRQAYWVCTLIEESELLEAQAAEATWEELKLALPELNVGLVHGRMKPAEKQAVMASFKQGELHLLVATTVIEVGVDVPNASLMIIENPERLGLAQLHQLRGRVGRGAVASHCVLLYKTPLSKTAQIRLQVLRDSNDGFVIAQKDLEIRGPGELLGTRQTGNAEFKVADLLRDQAMIPEVQRLARHIHERYPQQAKALIERWMPETERYSNA | soluble
5 | VTPQYQATSTIYVLGNSVSMSGVDLTLSKQLTADFSVLAKSRPVMNKIEEKLKADYKYKDLNYSVEQLQGMITIENPSGTSLMRMTATNSDAQLAADIANAAADAVAERISEVMVIDKPSSVEEAEKPNYPVSPNVKKNM | not soluble
6 | MGSDKIHHHHHHMSARLDAQIAFLKQADRLKSVERANVLLDLSRPENSAEHSWHLALWALVLSPFAAPDVDVDRAIRMLLLHDLVEIETGDHPIHEVTDWQAVERAERAAARKLFGLLPPDQAADFHTLWTEFDADETADARYAKMLDRCQPMFQVLCADTPRPDHVEVVRENLSSGRAAYLAEAFPEAHAHARALLERHPPVTGGFGDRLEFLAEADRLKTVLRASRLMDDSRFENSAEHSWHIMLYAWVLGEYAAAPVDIDRVLRMLLLHDLVEIDAGDNPIHGNVDHAAQEALEAAAAERLFGLLPPDQGAGLRAIWQEFETAQSADALFGKAVDRVQTPIANLENGGGSWVTYDVSLQQLVARVGTPVSRGAPGLWDWLFPQLSDCFTRLGLRL | not soluble
7 | MLNVVKRDGRQVVFDSNKIFNAIKGAADEIGYDIKQSDILELTQKVIGRVEDLKIREISVEEVQNLVEEVLLENGNKEIGMAYCTYRKERTKVRE | not soluble
8 | MGSDKIHHHHHHMCRLLAYLGSPVSLEYLLYKPEHSLIVQSYQPREMTSGVVNADGFGVGWYHSQKDTEPFTYKNTLPIWNDINLPSLSRYVESKCILAYVRSATAGQALDFANCQPFHYKQSLFIHNGYIENFRKTLHRKLRSTLTPDFYEHINGSTDSEHIFALLLSQIQSNKHRSVESVLRNTLLMLWEMAKRHQVNASANVVFSDGHRLIASRFASSSSPPSLYWLKDDLTFPNSVIIASEPLFAGNWTACPENSIISVGEDCDIKIESI | not soluble
9 | HMDPDELPLDEHCERLPYDASKWEFPRDRLNLGKPLGRGAFGQVIEADAFGIDKTATCRTVAVKMLKEGATHSEHRALMSELKILIHIGHHLNVVNLLGACTKPGGPLMVIVEFCKFGNLSTYLRSKRNEFVPYKTPEDLYKDFLTLEHLICYSFQVAKGMEFLASRKCIHRDLAARNILLSEKNVVKICDFGLARDIYKDPDYVRKGDARLPLKWMAPETIFDRVYTIQSDVWSFGVLLWEIFSLGASPYPGVKIDEEFCRRLKEGTRMRAPDYTTPEMYQTMLDCWHGEPSQRPTFSELVEHLGNLLQANAQQD | soluble
10 | MDYHIQEEKILEVLKENVYGLRGSIAFSGGLDSSLLYVISDRNLVPYTVGYSFSHDVNRAKFVLSLLNGSGKYVTLDEINIENYVKYLKSEYPDINKVEISFELVLEILLENVDSDLLVTGQGADELFFGYKRSVNEMDNSLQMERLLKRTIPREKDMAKRQGKELVTPFLDDRILKLASEISPAYHCLYGGKKALREIAKIAGLPEEVYGYRKKAAQYGSGIDKALKSVSYFGLF | not soluble
11 | NKDLLWTTSLNIGHNKNKLTKLDGEQQEIISGVSIHRVGQPYYSIYAYEYAGVDPQTGKELYYINGEDGSRETTTNSAAANKTIIGSIEPKVQGGLTNYVSWKFIDFNLTLTYSLGGHAYDYATWLQSNGGTYHYLGNVPAYYKMEDTWQKTGDNAKLPQFAYGNANKASSRWLMSTDHLRVKNMTLGFTLPQSWSSKAGISKLRAYVSGNNLLTWKKKSLYVDPEVPVDGLCTFETPALRTVTFGLEIGF | not soluble
12 | MNKNIDTVREIITVASILIKFSREDIVENRANFIAFLNEIGVTHEGRKLNQNSFRKIVSELTQEDKKTLIDEFNEGFEGVYRYLEMYTNK | soluble
13 | MNTLGLYQSDWSKAPPHAHAYHVKTTREQGHYHLIEGFTQPANGSNTDQHTHYYTGITSFENGHFHRYYGISGPAIPLADGTHYHEIEETTYLAYNEPIEIQYGGVVYDPGDDRRKTHRHTLKGKTREIVGNEPLGR | soluble
14 | MSLDIKQLKFLIALDQTRHFGQAAALCHITQPTLSMRLRNLEDELDLVLVKRGQRFEGFTEAGERILAWARTLLAAHDGLQAEAASCRGQVVGSLRLGTVPLASFNPMHLLLPLREKYPELHFQLSSLSSEQVIDGLSRNQLDLGICYLDQVNTSFFEVIELGTTTMGLLHDTRHFQFTSDRLRWDELGDIPLGLLSKGMHYRQSLDLSFRSRGLEPNAVLESDSSFQLIQAINTGICCAIMPLDCGLEDLSEHLRIVPVADAAIHSPVGLLLRRSEPRSAIAEQCFAEARGLFQASEGHHHHHH | soluble
15 | MGSDKIHHHHHHMDTQAFKRSLHHSERYNRRGFGRANEVASNLEKAYQSSLIGSIRDNGYVLQHGRLQVKLAEAFGFCWGVERAVAMAYETRRHYPSERIWITNEIIHNPSVNEHLREMDVLFIHAEGGVKDFSCVNDGDVVILPAFGATVQEMELLHERGCHIIDTTCPWVSKVWHTVEKHKKQEFTSIIHGKVKHEETLATSSFAGTYLVVLDLDEAQLVADYILGQGDRAAFMKRFAKACSANFDPDQDLQRLGVANQTTMLKSETEEIGRLFERTMLRKYGPIELNKHFLSFNTICDATEERQQAMFSLVDEPLDLLVVIGGFNSSNTTHLQEIAISRGIRSFHIDTPERIGDNNSIQHKPLGEDLFIESNFLPAGSVSVGITSGASTPDRVVEHVIQKLIDLTSG | not soluble
16 | MTFQVILCYETVRQVAGLESELKANGFGQAQVLPNGTVPNRGSIVDLTNAISKLGVLRATAAGLAGTISRGGAVAIVPAHFGAGGKATEIMKKYNPIVDRPAAKPSAWDDAAPFSSLLRLPVITKSQPFKGHSGTPLIIEQEGAYRSNSGEPLVIKQTGGYRSMSGTPLLLDGGPYKSFSGTPLLIEQKDAYSSFSGTPLLVDSNTLFLTRA | not soluble
17 | MGHHHHHHSHMAGGGAGDPGLGAAAAPAPETREHLFKVLVIGELGVGKTSIIKRYVHQLFSQHYRATIGVDFALKVLNWDSRTLVRLQLWDIAGQERFGNMTRVYYKEAVGAFVVFDISRSSTFEAVLKWKSDLDSKVHLPNGSPIPAVLLANKCDQNKDSSQSPSQVDQFCKEHGFAGWFETSAKDNINIEEAARFLVEKILVNHQSFPNEENDVDKIKLDQETLRAENKSQCC | soluble
18 | STVLIVSQEHQKIKTYINTVADRGVTEIPVKGGYSGTNQIMLMTTIAGYEFAKLQEAIAEIDETAFITVTPTSQASGRGFSLQKNHGRLDEDILMPM | not soluble
19 | MSPFGKIAIVGSGLVGSSWATIFASSGYEVQMYDISEKQLQVALENVEKNLRKLDEHGLQRGNLSADEALLRVSTTTSLNEVMKNAIYMQESALEDLNFRIQFYKVIDEIADPTTILASSTSTIPASKFTDGLINKERCLIVHPVNPPLFLPLTELVPAPWTSQDTVDRAAEIMRSVKQEPVKLKKEVLGFVVNRLQFALLAETWRLVADGVIGVNDVDAVMSAGLGPRYAFNGTCETVHLNAFGVRDYFKRYAAGITAVLKDMGPIPDFTDEKVINKLEEELEPKMSTLNIRKHQAEREEKLVEIAKLKKDLNL | not soluble
20 | MKWAYKEENNFEKRRAEGDKIRRKYPDRIPVIVEKAPKSKLHDLDKKKYLVPSDLTVGQFYFLIRKRIQLRPEDALFFFVNNVIPQTMTTMGQLYQDHHEEDLFLYIAYSDESVYGGEVEKKE | not soluble
21 | MGQFPRTVVHAAGTTEITTKPERVVVLDTGELDSVLSLGITPVGMTTTKGANPVPSYLADKVKDVERVGTINELNIEAIAALKPDLIIGSQLRADKLYPQLSDIAPTVFSIRPGSPWKENFLLVGEALGMEKEAEEKLNEYADRVAELKNNVPQNTEVSLVRFMPNKLRLYGNKSLIGVVLADAGLARPEKQNVDDLAVEISPENIDQAAGSVIFYTSYGKPDATGETAVVEGPAWKNLEAVAAGKAHRVNDDVWFLGLGPTGAMEIVSDLHDYLLEHHHHHH | soluble
22 | MEGTPNVPQAHRYELTLAGRPLVLETGKYAKQASGSVLVRYADTVVLATAQASETPVEADFLPLTVEFEERHYAVGKIPGSFMRREGRPGEKAILSARMTDRPIRPLFPKGFRHEVQIIVTVLSADQKNPPDILGPIAASAALMLSDIPWEGPIAAVRVGLIGGSFVLNPTLQELEESQLDLVVAGSKEAILMVEAEAGEVDEETLVQALEFAHKEMQPILELQEAMARELAKPKMAWTPPESLPEEEKEALYRLALERGLSQVLQTASKGERSRALAEFAERLIAEALPKGEDGTPDEGKKPLYESAFDEVVRRELRRLVLEEGKRADGRGPKDLRPIWIEVDVLPRAHGSAVFTRGETQVLGTVTLGTGRDEQILDDLGIDETEKFLVHYNFPPFSTGEVRRLRGVSRREVGHGNLAKRALKAVMPKEEDFPYTIRVVGDVLESNGSSSMATVCAGCLALMDAGVPIRAPVAGVAMGLVWEENRAVILTDILGLEDALGDMDFKVAGTRKGVTALQMDNKVGGLPREVLKEALLQAREARLKILDLMEAVLPAPRPELKPFAPRILSLKVPVEKIGLVIGPGGKNVRALEELGVEVDIEEDGTVRIYSSDLQAALEAKKRIEDLTREAKVGEIYEGTVTRITPFGAFISLFPGTEGLLHISQIAPGRVARVEDHLKVGDVIKVKVHRIDERGKIDLIRPELEGKIPPRRRR | soluble
23 | MSGELRVRRASSWELDLILKEAEKYGELLHEFFCVVEGKYRDVYAVNEEVWKIIEDINMRPYSLGTFVGTIRVDENLVEKFYPNLEFFSLIKLEKNYVILGPKASFLFTTGKDAPKEAVREIKWQGSKRVVVLNDLGDIIGIGLINPKSDRRFIKNLKDVGEFLRR | soluble

Reference: the DeepSol protein solubility set
